Experiment: yeast display, Sf9 membrane polyspecificity reagent, FACS + sequencing; frameworks hold sequencing errors
Outline: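 Synthetic nanobody libraries on Saccharomyces cerevisiae BJ5465 were galactose-induced for 36–48 hours, stained 1 hour at 4 °C with 10% biotinylated, detergent-solubilized Sf9 membrane reagent and enriched on streptavidin microbeads. FACS then separated cells into low and high (top ~1%) gates by anti-HA (expression) and streptavidin (reagent binding) fluorescence. Genes were colony-PCR amplified, MiSeq 2 × 250 sequenced and CDR-length filtered. A clone's polyreactivity label is that of its gate of origin.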

| Sequence | polyreactivity (PSR sort gate) |
| --- | --- |
| QVQLVESGGGLVQAGGSLRLRCAASGSIFNSYAMGWYIQAPGKERELVAAISIRGTRTYYADSVKGRFTISRDNAKNTVYLQMNSLKPEDTAVYYCAADASYTEGMDYWGQGTQVTVLS | high polyreactivity |
| QVQLVESGGGLVQAGGSLRLRCAASGSIFRRYAMGRYRQAPGKERELVATITSTDSTNYADSVKGRFTISRDNAKNTVYLQMNSLKPEDTAVYYCAKRPYDYRLNSEYYYWGQGTQVTVSS | low polyreactivity |
| QVQLVESGGGLVQAGGSLRLRCAASGSTFINNAMGWYRQAPGKERELVAAISGSGVSTYYADSVKGRFTISRDNAKNTVYLQMNSLKPEDTAVYYCNKRYRNYFWYKPYSTKYEYWGQGTQVTVSS | high polyreactivity |
| QVQLVESGGGLVQAGGSLRLRCAASGSTFPPNAMGWYRQAPGKERELVAVISNGGSNTRYADSVKGRFTISRDHAKNTVYLQMNSLKPEDTAVYYCAADYEYSGYGYWGQGTQVTVSS | high polyreactivity |
| QVQLVESGGGLVQAGGSLRLRCAASGSTFRQYAMGWYRQAPGKERELVAAISSGGRTNYADSVKGRFTISRDNAKNTVYLQMNSLKPEDTAVYYCAADIRRRVPVRGYYYWGQGTQVTVSS | high polyreactivity |
| QVQLVESGGGLVQAGGSLRLRCAASGSTYVYAIGWYRQAPGKDRELVASISWSDSSTYYADSVKGRFTISRDNAKNTVYLQMNSLKPEETAFYYCNADQGTRDSDYWGQGTQVTVSS | low polyreactivity |
| QVQLVESGGGLVQAGGSLRLRCAASGYTFPSNAKGWYRQAPGKERELVAPISSGGRTNYADSVKGRFTISRDNAKNTVYLLMKSLKPEDTAVYYSNADGGPGYPRAYDYWGQVTQVTVSS | low polyreactivity |
| QVQLVESGGGLVQAGGSLRLRCAASGYTLGPYAMGWYRQAPGKEREEVAALSWGGGRTYYADSVKGRFTISRDNAKNTVYLQMNSLKPEDTAVYYCGAKWSHVRDGPKYDYWGQGTQVTVSS | low polyreactivity |
| QVQLVESGGGLVQAGGSLRLRCAATGFIFSSYAMGWYRQAPGKERELVAAINRSGSTYYADSVKGRFTISRDNAKNTVYLQMNSLKPEDTADYYCNARRYYYRYRNYDYWGQGTQVTVSS | high polyreactivity |
| QVQLVESGGGLVQAGGSLRLRCAATGSIFTKYAMGWYRQAPGKERELVAAISWSGSRTRYADSVKGRFTISRDNAKNTVYLQMNSLKPEDTAVYYCAAEIAASYRPEYDYWGQGTQVTVSS | high polyreactivity |
| QVQLVESGGGLVQAGGSLRLRCADSGRNFVSNAMGWYRQAPGKERELVAAISKSGARTSYADSVKGRFTISRDNAKNTVYLQMNRLKPEDTAVYYCAAPVRWSGGGEYPNYYWGQGTQVTVSS | high polyreactivity |
| QVQLVESGGGLVQAGGSLRLRCADSGSTFYDNAMGWYRQATGKVRELVATISDSGGRTYYADSVKGRFTISRDNAKNTVYLQMNSLKPEDTAVYYCAADNYYITTVTDMYYWGQGTQVTVSS | low polyreactivity |
| QVQLVESGGGLVQAGGSLRLRCAPSGSIFSAYAMGWYRQAPGKVREVVAGISKSGARTYYADSVKGRFTLSRDNAKNTVYLQMNRLKPEDTAVYYCAAVDYYLYYYWGQGTQVTVSS | high polyreactivity |
| QVQLVESGGGLVQAGGSLRLRCGASGFIFEHYAMGWYRPAPAKERDFVAAISGSGGNKYYADSVKGRFTISRDNAKNTVYLQMNSLKPEDTAVYSCNKVDGTTLDDHYMDYWGQGTQVTVSS | low polyreactivity |
| QVQLVESGGGLVQAGGSLRLRGAAAGYNFLRYAIGWYRQAPGTERELVAAITNTGNTNYADSVKGRFTISRDNAKNTVYLQMNSLKPEDTAVYSCAAEYYWYSWKNRYKEYDYWGQGTQVTLSS | low polyreactivity |
| QVQLVESGGGLVQAGGSLRLRGAASGFTFLYYAMGWYRQAPGKERELVAAITWSGDSTYYADSEKGRFTISRDYAMNTVYLQMNSLKPEDTAVYYCATGGVTFGSVVRGVDGDYWGQGTQVTVSS | low polyreactivity |
| QVQLVESGGGLVQAGGSLRLRGAASGSTFYRYAMGWSRQAPGKERELVAAISWSAGRTYYADSVKGRFTISRYTAKNTVYLQMNSLKPEDTAVYYCAARGWYKSDYWGQGTQVTVSS | low polyreactivity |
| QVQLVESGGGLVQAGGSLRLSCAAAGRIFSYNAMGWYRQAPGKERELVAAISSGGSTYYADSVKGRFTISRDNAKNTFYLQMNSLKPEDTAVYYCAADRRYYSDMYYWGQGTQVTVSS | low polyreactivity |
| QVQLVESGGGLVQAGGSLRLSCAAAGRIFVQYDMGWYRQAAGKERELVAAIIDSGDITYYADSVKGRYTSSRDNAKNTVYLQMNSLKPEDTAVYDCAASAAYYGFYKSVTYDYWGQGTQVTVSS | low polyreactivity |
| QVQLVESGGGLVQAGGSLRLSCAAAGRTIRRIAMGWYRQAPGKERELVAAISKSGGRTYYADSVKGRFTISRDKAKKTVYLQMNSMKPEDTAVYYCGAYDTVYNSGDYDYWGQGTQVTVSS | high polyreactivity |
| QVQLVESGGGLVQAGGSLRLSCAAAGSTFSSYAMGWYRQAPGKERELVAAITSSGGSTYYADSVKGRFSISRDNAKNTVYIQKNSLKPEDTAVYYCAAADVIFWLYYYWGQGTQVTVSS | low polyreactivity |
| QVQLVESGGGLVQAGGSLRLSCAAARYAMGWYRPAPGKERELVAAISKSGGSTYYADSVKGRFTISRDNAKNTVYLQMNSLIPEDTAVYYCAARGHAGRGEYYYWGQGTQVTVSS | high polyreactivity |

| Sequence | polyreactivity (PSR sort gate) |
| --- | --- |
| QVQLVESGGGLVQAGGSLRLSCAACGFIFRRYAMGWYRQAPGKERELVAAISSGGNTNYADSVKGRFTISRDNAKNTVYLQMNSLKPEDTAVYYCAVLGWYYYKYDYWGQGTQVNVSS | high polyreactivity |
| QVQLVESGGGLVQAGGSLRLSCAACGFIFSSNAMGWYTPAPGNERELVAAITGGGGRTRYADSVKGRFTISRDNAKNSVYLQMNSLKPEDTAVYYCNTVYYVYYRSYSYKGDYWGQGTQVTVSS | high polyreactivity |
| QVQLVESGGGLVQAGGSLRLSCAACGFIFYKNAMGWYRQAPGKERELFAAISGGGGSTSYADSVKGRFTISRDNAKNTVYLQMNSLKPEDTAVYYCATYSFRRTGWRYDYWGQGTQVTVSS | high polyreactivity |
| QVQLVESGGGLVQAGGSLRLSCAACGFTFTAYAMVWYRQAPGKERELVAAISYRGGRTNYAYSVKGRFTISRDNAKNTVYLQMNSLKPEDTAVYYCAARPRISTREMDYWRQGTQVTVSS | high polyreactivity |
| QVQLVESGGGLVQAGGSLRLSCAACGGTFGNYAMGWYRQAPGKDRELVAAISTRGGSTYYADSVKGRFTISRDNAKNTVYLQMNSLKPEDTAVYYCNARIKRPRGVYGGDYWGQGTQVTVSS | high polyreactivity |
| QVQLVESGGGLVQAGGSLRLSCAACGITWGYAMGWYRQAPGKERELVAVIRWSGTSTSYADSVKGRYTISRAKAKNTVYLQMNSLKPEDTAVYYCNAAWYDQYGDSDGDDYWGQGTQVTVSS | low polyreactivity |
| QVQLVESGGGLVQAGGSLRLSCAACGRIFTYNAMGWYRQAPGKERELVAAISSSGGRTYYADSVKGRFTISRDNAKNTLYLEMNSLKPEDTAVYYCARAYREGGRTQRGDYWGQGTQVTVSS | high polyreactivity |
| QVQLVESGGGLVQAGGSLRLSCAACGRIFVRNAMGWYRQAPGKERELVADITNGGSTNYADSVKGRFTISRDNAKNTVYLQMNSLKPEDTAVYYCGAVYYSTDYYFWYDYWGQGTQVTVSS | low polyreactivity |
| QVQLVESGGGLVQAGGSLRLSCAACGRTSSIYAMGWYRQAPGKERELVATITGGAVSTSYADSVKGRFTISRDNAKYTVYLQMNSLKPEDSAVYYCAADHWRYRSRPVNYWRQGTQVTVSS | high polyreactivity |
| QVQLVESGGGLVQAGGSLRLSCAACGSIFKGNAMGWYRQAPGKERELVARISSGGSTYYADSVKGRFTISRDNAKNTVYLQMNSLKPEDTAVYYCAARVYTSYIRQYTYSYYYWGQGTQVTVSS | high polyreactivity |
| QVQLVESGGGLVQAGGSLRLSCAACGSILKQYAMGWYRQAPGKERVLDAAITWRGTGTYYADSVKGRFTISRDNAKKTVYLLMNSLQAEDTAVSYCAAKWYRRTYGYLPYTGIVNYDYWGQGTQLTVSS | high polyreactivity |
| QVQLVESGGGLVQAGGSLRLSCAACGSTFRYYAMGWYRQAPGKERELVAAITYSGGSTYYADSVKGRFTISRDNAKNTVYLQMNSLKPEDTAVYYCNADFLPRWYPPPYDYWGQGTQVTVSS | high polyreactivity |
| QVQLVESGGGLVQAGGSLRLSCAACGSTFYVNTMGWYRQAPGKERELVAAITDSGVGTYADSVKGRFTISRDNAKNTVYLQMNSLKPEDTAVYYCNADGRYYDDETYDYWGQGTQVTVSS | low polyreactivity |
| QVQLVESGGGLVQAGGSLRLSCAACVRTFSGYAMGWYRPAPGKERELVAAIRWSGGSTYYADSVKGRFTISRDNAKNTVYLQMNSLKPEDTAVYYCATRDYYYRYGYWGQGTQVTVSS | high polyreactivity |
| QVQLVESGGGLVQAGGSLRLSCAAFGFTFNSYAMGWNRQAPGKERELVAGITSSGGGTYYADSVKGRFTISRDNAKNTVYLQMNSLKPEDTAVYYCNTYSYLFSRYGFWGQGTQVTVSS | high polyreactivity |
| QVQLVESGGGLVQAGGSLRLSCAAFGSIFGYNAMGSYRQAPGKEREFVAAISWSGGRTYYADSVKGRFTISRDNAKNTVYLQMNSLKPEDTAVYYCAAPSRPAPRFDYWGQGTQVTVSS | low polyreactivity |
| QVQLVESGGGLVQAGGSLRLSCAAPGSTIRANAMGWYRQAPGKEMELVAAITKNGGSTYYADSVKGRFTISRDNAKNTVYLQMNSLKPEDTAVYYCAARRSSRRPPYYYWGQGTQVTVSS | high polyreactivity |
| QVQLVESGGGLVQAGGSLRLSCAASAFILQRNAMGWYRQAHGKERELVAAISSRGGSTYYADSVKGRFTISRDNAKNTVYLQMNSLKPEDTAVYYCNRRSRAHGYGSQYDYWGQGTQVTVSS | low polyreactivity |
| QVQLVESGGGLVQAGGSLRLSCAASAIIFDGNTMGWYRQAPGKEREFVAAISRNGGTTSYADSVKGRFTISRDNAKNTVYLQMNSLKPEDTAVYYCAADVETFWGWRYEYWGQGTQVTVSS | low polyreactivity |
| QVQLVESGGGLVQAGGSLRLSCAASAIIFYKNAMGWYRQAPGKERELVAAITRGGSTNYADSVKGRFTISRDNAKNTVYLQMNSLKPEDTAVYYCDKRWFYTRYPTYDYWGQGTQVTVSS | low polyreactivity |
| QVQLVESGGGLVQAGGSLRLSCAASARIFFTYVMGWYRQAHGKEREFVAAITFSDGTTYYADSVKGRFTISRDNAKNTVYLQMNSLKPEDTAVYYCNTDSFYGFVYPWTISSEVDYWGQGTQVTVSS | low polyreactivity |

From the nanobody polyreactivity screen of Harvey et al. (2022)
